Measured values as given in patent US20200087416A1 (Innovent, published 2020).

What was measured:
[1] = target: T1, human PCSK9 (PCSK9 antigen, SEQ ID NO. 53) (human, UniProt A8T644 31-152; Q8NBP7 153-692, Biotin-labelled on amines in the MSD-SET and sorting experiments; positions not given.); experiment: ForteBio method and MSD-SET assay, as the sentence says; end tied to ADI-10085 by Table 2
T1 construct: Biotin-labelled in MSD-SET; also called PCSK9-WT; PCSK9 protein

[2] = target: T1, human PCSK9 (PCSK9 antigen, SEQ ID NO. …); experiment: MSD-SET, Fab with biotin-PCSK9 in solution, IgG on plate, pH 6.0
[3] = target: T1, human PCSK9 (PCSK9 antigen, SEQ ID NO. …); experiment: MSD-SET, Fab with biotin-PCSK9 in solution, IgG on plate, pH 7.4
[4] = target: T2, murine PCSK-9 (murine, UniProt Q80W65 35-694); experiment: as above
T2 construct: also called mouse PCSK9

Kd [1]: 4 pM | Kd [2]: 5.9 pM | Kd [3]: 4.2 pM | Kd [4]: 41 pM
B1: ADI-10085 Fab (Fab, V domains shown)
VH: QLQLQESGPGLVKPSETLSLTCTVSGGSIVSSSYYWAWIRQPPGKGLEWIGSINYKGSTYYNPSLKSRVTISVDTSKNQFSLKLSSVTAADTAVYYCARENSGVVPAAGPNWFGPWGQGTLVTVSS
VL: EIVLTQSPATLSLSPGERATLSCRASQSVSSYLAWYQQKPGQAPRLLIYDASNRATGIPARFSGSGSGTDFTLTISSLEPEDFAVYYCQQRRNWFTFGGGTKVEIKR
